The results in this text go back to patent US20220048967A1 (published 2022).

In assay [1] the target is T1, human gastric inhibitory peptide receptor (GIPR) (human, UniProt P48546 22-466).
T1 sequence (looked up): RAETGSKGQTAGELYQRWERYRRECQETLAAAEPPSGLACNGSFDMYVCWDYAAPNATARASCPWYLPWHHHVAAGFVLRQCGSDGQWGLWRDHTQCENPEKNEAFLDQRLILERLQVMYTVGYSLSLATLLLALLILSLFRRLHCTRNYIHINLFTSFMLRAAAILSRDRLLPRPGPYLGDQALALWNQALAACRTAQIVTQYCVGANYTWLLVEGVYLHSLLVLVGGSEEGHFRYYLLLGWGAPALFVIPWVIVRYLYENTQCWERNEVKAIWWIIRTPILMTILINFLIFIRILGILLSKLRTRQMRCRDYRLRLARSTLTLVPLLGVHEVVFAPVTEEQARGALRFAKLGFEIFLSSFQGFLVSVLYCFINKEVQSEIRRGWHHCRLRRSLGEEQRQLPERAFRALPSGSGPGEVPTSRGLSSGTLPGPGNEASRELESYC
The assay is described as follows: cell-based or functional assay.

Assay [2] deals with human GLP-1 receptor (GLP-1R) (human, UniProt P43220 24-463). The assay is described as follows: cell-based or functional assay.

Numbered stars: 1 amine (or outer) side, 2 acyl side, 3 side chain; on linkers, the order of the positions; unused ones are H or OH. Square brackets hold non-standard residues; d marks the D form. Side chains are listed from the residue outwards. Ends that are not written are not given here. * marks the point of attachment. C20 diacid = O=C(O)CCCCCCCCCCCCCCCCCCC(=O)*; αMePhe(2-F) = C[C@](N)(Cc1ccccc1F)C(=O)O; γGlu = O=C(O)[C@H](CCC(=O)[*:2])N[*:1]; αMeF = C[C@](N)(Cc1ccccc1)C(=O)O; AEEA = NCCOCCOCC(=O)O; Aib = CC(C)(N)C(=O)O

B1: Example 163 (peptide)
peptide: H[Aib]EGT[αMePhe(2-F)]TSDYSI[αMeF]LDEK([AEEA-AEEA-γGlu-C20 diacid])AQ[Aib]EFIEYLIEGGPSSGAPPPS-NH2
modifications: N-terminus assumed
SMILES: CC[C@H](C)[C@H](NC(=O)[C@H](CC(C)C)NC(=O)[C@H](Cc1ccc(O)cc1)NC(=O)[C@H](CCC(=O)O)NC(=O)[C@@H](NC(=O)[C@H](Cc1ccccc1)NC(=O)[C@H](CCC(=O)O)NC(=O)C(C)(C)NC(=O)[C@H](CCC(N)=O)NC(=O)[C@H](C)NC(=O)[C@H](CCCCNC(=O)COCCOCCNC(=O)COCCOCCNC(=O)CC[C@H](NC(=O)CCCCCCCCCCCCCCCCCCC(=O)O)C(=O)O)NC(=O)[C@H](CCC(=O)O)NC(=O)[C@H](CC(=O)O)NC(=O)[C@H](CC(C)C)NC(=O)[C@](C)(Cc1ccccc1)NC(=O)[C@@H](NC(=O)[C@H](CO)NC(=O)[C@H](Cc1ccc(O)cc1)NC(=O)[C@H](CC(=O)O)NC(=O)[C@H](CO)NC(=O)[C@@H](NC(=O)[C@](C)(Cc1ccccc1F)NC(=O)[C@@H](NC(=O)CNC(=O)[C@H](CCC(=O)O)NC(=O)C(C)(C)NC(=O)[C@@H](N)Cc1c[nH]cn1)[C@@H](C)O)[C@@H](C)O)[C@@H](C)CC)[C@@H](C)CC)C(=O)N[C@@H](CCC(=O)O)C(=O)NCC(=O)NCC(=O)N1CCC[C@H]1C(=O)N[C@@H](CO)C(=O)N[C@@H](CO)C(=O)NCC(=O)N[C@@H](C)C(=O)N1CCC[C@H]1C(=O)N1CCC[C@H]1C(=O)N1CCC[C@H]1C(=O)N[C@@H](CO)C(N)=O
Turning to B1, in assay [1], the “hGIPR cAMP EC50 ratio” value came out at 1.29 and the “hGIPR cAMP Rel EC50” value turned out to be 0.121 nM. Also, in assay [2], the “hGLP1R cAMP EC50 ratio” value is 1.54 and the “hGLP1R cAMP Rel EC50” value was determined as 0.0316 nM.

B2: Example 162 (peptide)
peptide: Y[Aib]EGT[αMePhe(2-F)]TSDHSI[αMeF]LDEK([AEEA-AEEA-γGlu-γGlu-C20 diacid])AQ[Aib]TFI[dE]HLIEGGPSSG-NH2
modifications: N-terminus assumed
SMILES: CC[C@H](C)[C@H](NC(=O)[C@H](CC(C)C)NC(=O)[C@H](Cc1c[nH]cn1)NC(=O)[C@@H](CCC(=O)O)NC(=O)[C@@H](NC(=O)[C@H](Cc1ccccc1)NC(=O)[C@@H](NC(=O)C(C)(C)NC(=O)[C@H](CCC(N)=O)NC(=O)[C@H](C)NC(=O)[C@H](CCCCNC(=O)COCCOCCNC(=O)COCCOCCNC(=O)CC[C@H](NC(=O)CC[C@H](NC(=O)CCCCCCCCCCCCCCCCCCC(=O)O)C(=O)O)C(=O)O)NC(=O)[C@H](CCC(=O)O)NC(=O)[C@H](CC(=O)O)NC(=O)[C@H](CC(C)C)NC(=O)[C@](C)(Cc1ccccc1)NC(=O)[C@@H](NC(=O)[C@H](CO)NC(=O)[C@H](Cc1c[nH]cn1)NC(=O)[C@H](CC(=O)O)NC(=O)[C@H](CO)NC(=O)[C@@H](NC(=O)[C@](C)(Cc1ccccc1F)NC(=O)[C@@H](NC(=O)CNC(=O)[C@H](CCC(=O)O)NC(=O)C(C)(C)NC(=O)[C@@H](N)Cc1ccc(O)cc1)[C@@H](C)O)[C@@H](C)O)[C@@H](C)CC)[C@@H](C)O)[C@@H](C)CC)C(=O)N[C@@H](CCC(=O)O)C(=O)NCC(=O)NCC(=O)N1CCC[C@H]1C(=O)N[C@@H](CO)C(=O)N[C@@H](CO)C(=O)NCC(N)=O
As for B2, in assay [1], the “hGIPR cAMP EC50 ratio” value was found to be 0.0393 and the “hGIPR cAMP Rel EC50” value amounted to 4.56 nM. Further, in assay [2], the “hGLP1R cAMP EC50 ratio” value amounted to 0.00161 and the “hGLP1R cAMP Rel EC50” value amounted to 36 nM.

B3: Example 164 (peptide)
peptide: YXEGTXTSDHSIXLDEKAQXTFIXYLIXGGPSSGAPPPS
modifications: Y-Aib-EGT-αMeF(2F)-TSDHSI-αMeF-LDEK((2-[2-(2-Amino-ethoxy)-ethoxy]-acetyl)2-(γ-Glu)-CO-(CH2)18-CO2H)AQ-Aib-TFI-(D-Glu)-YLI-(D-Glu)-GGPSSGAPPPS-NH2
Take B3: in assay [1], the “hGIPR cAMP EC50 ratio” value amounted to 0.0581 and the “hGIPR cAMP Rel EC50” value was 3.09 nM. Also, in assay [2], the “hGLP1R cAMP EC50 ratio” value was 0.00373 and the “hGLP1R cAMP Rel EC50” value is 15.6 nM.
